Results published in publication doi:10.1101/2022.07.28.501818.

Biological target: fibronectin (FN) from human plasma (human) (UniProt P02751)
Chain of UniProt P02751 (P02751 32-2477): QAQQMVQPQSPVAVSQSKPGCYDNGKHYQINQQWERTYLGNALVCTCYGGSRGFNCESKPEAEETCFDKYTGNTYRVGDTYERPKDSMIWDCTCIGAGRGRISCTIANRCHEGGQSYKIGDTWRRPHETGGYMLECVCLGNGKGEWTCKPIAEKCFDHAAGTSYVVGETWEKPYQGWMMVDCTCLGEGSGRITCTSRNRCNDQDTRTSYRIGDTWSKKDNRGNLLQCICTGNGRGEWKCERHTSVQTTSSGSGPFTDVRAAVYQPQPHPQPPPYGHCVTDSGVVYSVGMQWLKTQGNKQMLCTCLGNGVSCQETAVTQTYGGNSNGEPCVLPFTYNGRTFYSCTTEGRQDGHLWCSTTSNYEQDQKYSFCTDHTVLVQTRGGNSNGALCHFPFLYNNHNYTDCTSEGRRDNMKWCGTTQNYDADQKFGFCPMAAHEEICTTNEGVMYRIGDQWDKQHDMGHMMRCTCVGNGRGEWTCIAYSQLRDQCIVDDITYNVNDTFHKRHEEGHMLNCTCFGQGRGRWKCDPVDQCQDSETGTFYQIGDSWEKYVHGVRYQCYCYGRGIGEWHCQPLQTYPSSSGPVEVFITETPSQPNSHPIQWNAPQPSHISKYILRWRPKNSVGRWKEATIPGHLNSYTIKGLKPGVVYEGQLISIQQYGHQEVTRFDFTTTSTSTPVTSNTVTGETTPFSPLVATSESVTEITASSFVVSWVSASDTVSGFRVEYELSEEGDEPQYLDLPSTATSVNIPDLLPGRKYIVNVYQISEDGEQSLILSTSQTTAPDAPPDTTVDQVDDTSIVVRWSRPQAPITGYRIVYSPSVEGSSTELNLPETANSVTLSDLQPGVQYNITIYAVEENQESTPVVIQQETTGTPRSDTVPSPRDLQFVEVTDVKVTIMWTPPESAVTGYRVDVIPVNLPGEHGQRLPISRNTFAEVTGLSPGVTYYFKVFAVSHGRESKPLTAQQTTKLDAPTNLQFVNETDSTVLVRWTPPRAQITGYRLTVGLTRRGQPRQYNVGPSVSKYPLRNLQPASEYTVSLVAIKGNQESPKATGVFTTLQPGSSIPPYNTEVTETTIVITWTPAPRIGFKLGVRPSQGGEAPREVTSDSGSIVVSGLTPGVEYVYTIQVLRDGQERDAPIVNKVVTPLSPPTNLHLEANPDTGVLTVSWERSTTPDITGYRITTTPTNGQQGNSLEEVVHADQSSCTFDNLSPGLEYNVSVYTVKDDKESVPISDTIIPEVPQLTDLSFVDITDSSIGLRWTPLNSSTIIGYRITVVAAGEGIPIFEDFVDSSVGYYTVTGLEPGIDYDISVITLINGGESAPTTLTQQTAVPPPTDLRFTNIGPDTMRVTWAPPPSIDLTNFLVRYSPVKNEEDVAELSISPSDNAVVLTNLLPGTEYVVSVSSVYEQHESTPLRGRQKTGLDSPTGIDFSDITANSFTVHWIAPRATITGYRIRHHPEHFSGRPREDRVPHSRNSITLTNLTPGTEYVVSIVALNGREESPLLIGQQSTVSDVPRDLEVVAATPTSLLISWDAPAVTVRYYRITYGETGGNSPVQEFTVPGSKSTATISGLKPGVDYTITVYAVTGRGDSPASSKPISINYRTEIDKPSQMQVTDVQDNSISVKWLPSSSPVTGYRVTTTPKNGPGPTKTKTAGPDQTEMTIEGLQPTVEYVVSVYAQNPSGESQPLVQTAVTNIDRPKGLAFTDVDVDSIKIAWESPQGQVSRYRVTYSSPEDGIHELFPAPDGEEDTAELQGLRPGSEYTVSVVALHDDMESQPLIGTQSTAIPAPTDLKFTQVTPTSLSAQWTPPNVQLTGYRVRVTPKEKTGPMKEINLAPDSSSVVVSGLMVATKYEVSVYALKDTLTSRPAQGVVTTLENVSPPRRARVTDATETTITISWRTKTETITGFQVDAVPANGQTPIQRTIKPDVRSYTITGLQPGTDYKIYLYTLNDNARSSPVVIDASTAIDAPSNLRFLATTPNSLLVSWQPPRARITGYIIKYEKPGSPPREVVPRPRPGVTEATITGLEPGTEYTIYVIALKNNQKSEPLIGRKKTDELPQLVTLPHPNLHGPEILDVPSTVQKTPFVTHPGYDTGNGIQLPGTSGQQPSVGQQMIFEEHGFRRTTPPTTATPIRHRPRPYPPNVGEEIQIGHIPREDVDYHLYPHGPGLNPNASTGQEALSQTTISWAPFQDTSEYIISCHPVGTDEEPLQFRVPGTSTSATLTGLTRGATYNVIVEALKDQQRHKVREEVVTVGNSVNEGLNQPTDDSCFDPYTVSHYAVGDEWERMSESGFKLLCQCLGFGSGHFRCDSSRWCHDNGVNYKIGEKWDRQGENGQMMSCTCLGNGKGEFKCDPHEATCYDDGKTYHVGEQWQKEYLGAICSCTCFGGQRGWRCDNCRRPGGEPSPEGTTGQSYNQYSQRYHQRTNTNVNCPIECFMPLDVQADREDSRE

B1: BMP-2 (bone morphogenetic protein 2) (ligand)
chain: QAKHKQRKRLKSSCKRHPLYVDFSDVGWNDWIVAPPGYHAFYCHGECPFPLADHLNSTNHAIVQTLVNSVNSKIPKACCVPTELSAISMLYLDENEKVVLKNYQDMVVEGCGCR
  surface density of BMP-2 on PEA-FN: 8 ng/cm2
